The supplement of paper PMC10567573

B1: MIA2 (parent)
chain: DMVSNIELPTRIHEEVYFEPSSSK
B2: KLHL12 (parent)
chain: REESLPNLLQYVRMPLLTPRYITD

Variants of: B1
Assay: protein stability index of a GFP-peptide fusion (GPS, HEK-293T) (PSI 1-6); higher = more stable
Details: c terminus: a fixed tail appended
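Further: lentivirally expressed fusions sorted by FACS into six bins by GFP to DsRed ratio, PSI derived from sequencing read proportions per bin multiplied by bin number.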

Row | Variant | protein stability index
1 | LMVSNIELPTRIHEEVYFEPSSSK [D1L] | 3.11
2 | KMVSNIELPTRIHEEVYFEPSSSK [D1K] | 3.93
3 | AMVSNIELPTRIHEEVYFEPSSSK [D1A] | 3.62
4 | FMVSNIELPTRIHEEVYFEPSSSK [D1F] | 2.87
5 | NMVSNIELPTRIHEEVYFEPSSSK [D1N] | 4.15
6 | CMVSNIELPTRIHEEVYFEPSSSK [D1C] | 2.86
7 | EMVSNIELPTRIHEEVYFEPSSSK [D1E] | 3.16
8 | MMVSNIELPTRIHEEVYFEPSSSK [D1M] | 2.73
9 | IMVSNIELPTRIHEEVYFEPSSSK [D1I] | 2.36
10 | VMVSNIELPTRIHEEVYFEPSSSK [D1V] | 1.98
11 | SMVSNIELPTRIHEEVYFEPSSSK [D1S] | 3.5
12 | HMVSNIELPTRIHEEVYFEPSSSK [D1H] | 4.67
13 | GMVSNIELPTRIHEEVYFEPSSSK [D1G] | 3.65
14 | TMVSNIELPTRIHEEVYFEPSSSK [D1T] | 3.63
15 | PMVSNIELPTRIHEEVYFEPSSSK [D1P] | 4.09
16 | RMVSNIELPTRIHEEVYFEPSSSK [D1R] | 4.25
17 | QMVSNIELPTRIHEEVYFEPSSSK [D1Q] | 3.95

Variants of: B2
Assay: as above
Details: c terminus: a fixed tail appended

Row | Variant | protein stability index
18 | REESLPNLLQYVRMPLLTPRYIHD [T23H] | 2.58
19 | REESLPNLLQYVRMPLLTPRYISD [T23S] | 2.66
20 | REESLPNLLQYVRMPLLTPRYIRD [T23R] | 3.83
21 | REESLPNLLQYVRMPLLTPRYIDD [T23D] | 3.12
22 | REESLPNLLQYVRMPLLTPRYIED [T23E] | 2.81
23 | REESLPNLLQYVRMPLLTPRYIWD [T23W] | 1.7
24 | REESLPNLLQYVRMPLLTPRYIPD [T23P] | 2.57
25 | REESLPNLLQYVRMPLLTPRYILD [T23L] | 2.02
26 | REESLPNLLQYVRMPLLTPRYIGD [T23G] | 2.48
27 | REESLPNLLQYVRMPLLTPRYIMD [T23M] | 2.61
28 | REESLPNLLQYVRMPLLTPRYIQD [T23Q] | 2.65
29 | REESLPNLLQYVRMPLLTPRYICD [T23C] | 2.03
30 | REESLPNLLQYVRMPLLTPRYIKD [T23K] | 3.35
31 | REESLPNLLQYVRMPLLTPRYIAD [T23A] | 2.9
32 | REESLPNLLQYVRMPLLTPRYIFD [T23F] | 1.62
33 | REESLPNLLQYVRMPLLTPRYIND [T23N] | 2.85
34 | REESLPNLLQYVRMPLLTPRYIYD [T23Y] | 2.09
35 | REESLPNLLQYVRMPLLTPRYIID [T23I] | 2.12
36 | REESLPNLLQYVRMPLLTPRYIVD [T23V] | 2.04
37 | REESLPNLLQYVRMPLLTPRYFTD [I22F] | 1.93
38 | REESLPNLLQYVRMPLLTPRYETD [I22E] | 3.22
39 | REESLPNLLQYVRMPLLTPRYTTD [I22T] | 3.39
40 | REESLPNLLQYVRMPLLTPRYKTD [I22K] | 3.71
41 | REESLPNLLQYVRMPLLTPRYDTD [I22D] | 3.27
42 | REESLPNLLQYVRMPLLTPRYATD [I22A] | 2.76
43 | REESLPNLLQYVRMPLLTPRYRTD [I22R] | 3.84

Row | Variant | protein stability index
44 | REESLPNLLQYVRMPLLTPRYGTD [I22G] | 2.4
45 | REESLPNLLQYVRMPLLTPRYMTD [I22M] | 1.94
46 | REESLPNLLQYVRMPLLTPRYYTD [I22Y] | 2.34
47 | REESLPNLLQYVRMPLLTPRYNTD [I22N] | 2.71
48 | REESLPNLLQYVRMPLLTPRYWTD [I22W] | 1.93
49 | REESLPNLLQYVRMPLLTPRYVTD [I22V] | 2.18
50 | REESLPNLLQYVRMPLLTPRYHTD [I22H] | 2.86
51 | REESLPNLLQYVRMPLLTPRYLTD [I22L] | 2.4
52 | REESLPNLLQYVRMPLLTPRYCTD [I22C] | 2.55
53 | REESLPNLLQYVRMPLLTPRYPTD [I22P] | 3.71
54 | REESLPNLLQYVRMPLLTPRYSTD [I22S] | 2.72
55 | REESLPNLLQYVRMPLLTPRYQTD [I22Q] | 2.54
56 | REESLPNLLQYVRMPSLTPRYITD [L16S] | 3.56
57 | REESLPNLLQYVRMPFLTPRYITD [L16F] | 2.27
58 | REESLPNLLQYVRMPYLTPRYITD [L16Y] | 2.98
59 | REESLPNLLQYVRMPQLTPRYITD [L16Q] | 3.12
60 | REESLPNLLQYVRMPCLTPRYITD [L16C] | 2.41
61 | REESLPNLLQYVRMPVLTPRYITD [L16V] | 3.03
62 | REESLPNLLQYVRMPNLTPRYITD [L16N] | 2.77
63 | REESLPNLLQYVRMPHLTPRYITD [L16H] | 3.18
64 | REESLPNLLQYVRMPWLTPRYITD [L16W] | 1.6
65 | REESLPNLLQYVRMPTLTPRYITD [L16T] | 2.75
66 | REESLPNLLQYVRMPILTPRYITD [L16I] | 2.45
67 | REESLPNLLQYVRMPRLTPRYITD [L16R] | 3.25
68 | REESLPNLLQYVRMPGLTPRYITD [L16G] | 2.84
69 | REESLPNLLQYVRMPMLTPRYITD [L16M] | 2.46

Row | Variant | protein stability index
70 | REESLPNLLQYVRMPPLTPRYITD [L16P] | 2.77
71 | REESLPNLLQYVRMPALTPRYITD [L16A] | 2.56
72 | REESLPNLLQYVRMPELTPRYITD [L16E] | 3.04
73 | REESLPNLLQYVRMPDLTPRYITD [L16D] | 2.69
74 | REESLPNLLQYVRMPKLTPRYITD [L16K] | 2.93
75 | REESLPNLLQYVRMPLLSPRYITD [T18S] | 2.27
76 | REESLPNLLQYVRMPLLHPRYITD [T18H] | 2.52
77 | REESLPNLLQYVRMPLLDPRYITD [T18D] | 2.38
78 | REESLPNLLQYVRMPLLAPRYITD [T18A] | 2.36
79 | REESLPNLLQYVRMPLLRPRYITD [T18R] | 2.67
80 | REESLPNLLQYVRMPLLPPRYITD [T18P] | 2.29
81 | REESLPNLLQYVRMPLLKPRYITD [T18K] | 2.19
82 | REESLPNLLQYVRMPLLLPRYITD [T18L] | 2.42
83 | REESLPNLLQYVRMPLLQPRYITD [T18Q] | 2.5
84 | REESLPNLLQYVRMPLLMPRYITD [T18M] | 1.81
85 | REESLPNLLQYVRMPLLGPRYITD [T18G] | 3.92
86 | REESLPNLLQYVRMPLLYPRYITD [T18Y] | 1.95
87 | REESLPNLLQYVRMPLLWPRYITD [T18W] | 1.55
88 | REESLPNLLQYVRMPLLNPRYITD [T18N] | 1.7
89 | REESLPNLLQYVRMPLLCPRYITD [T18C] | 1.96
90 | REESLPNLLQYVRMPLLIPRYITD [T18I] | 2.17
91 | REESLPNLLQYVRMPLLVPRYITD [T18V] | 1.97
92 | REESLPNLLQYVRMPLLFPRYITD [T18F] | 2.46
93 | REESLPNLLQYVRMPLLEPRYITD [T18E] | 2.87
94 | REESLPNLLQYVRMPLMTPRYITD [L17M] | 2.63
